The target of this assay is calcium/calmodulin dependent protein kinase IIα (UniProt Q9UQM7).
Chain of UniProt Q9UQM7 (Q9UQM7 whole entry): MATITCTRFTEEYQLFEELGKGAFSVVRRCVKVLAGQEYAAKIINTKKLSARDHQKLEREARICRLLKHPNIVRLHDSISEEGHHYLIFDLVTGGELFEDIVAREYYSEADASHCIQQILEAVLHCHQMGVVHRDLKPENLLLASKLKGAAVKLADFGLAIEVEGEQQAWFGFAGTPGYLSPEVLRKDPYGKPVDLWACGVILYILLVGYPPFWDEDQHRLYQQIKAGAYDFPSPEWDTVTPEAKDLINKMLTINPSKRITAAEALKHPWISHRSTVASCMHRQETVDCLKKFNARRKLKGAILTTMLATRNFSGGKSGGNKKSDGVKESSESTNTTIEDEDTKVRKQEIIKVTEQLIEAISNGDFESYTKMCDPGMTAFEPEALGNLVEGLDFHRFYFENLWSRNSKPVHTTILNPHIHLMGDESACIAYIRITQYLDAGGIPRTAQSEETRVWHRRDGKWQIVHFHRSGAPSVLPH

As to “MetO77 calmodulin (from UniProt P0DP23 1-149) (natural protein)”, the half maximal activation of CaMKIIα (phosphorylation of syntide-2, HPLC), calmodulin 10^-9 to 10^-6 M, 0.5 mM calcium chloride, 37° is 129 nM.
Consider “wild type calmodulin (recombinant, human) (from UniProt P0DP23 1-149) (natural protein)”, for which the half maximal activation of CaMKIIα (phosphorylation of syntide-2, HPLC), calmodulin 10^-9 to 10^-6 M, 0.5 mM calcium chloride, 37° stood at 64 nM.
